Measured values taken from the Human Domainome abundance scans (Beltran et al. 2025).
± gives the uncertainty stated by the source.

B1: KAT8 regulatory NSL complex subunit 2, residues 28 to 91; numbered along this chain, Q9H9L4 (parent)
chain: CAFTHRPCSHPRLEGQEFCIKHILEDKNAPFKQCSYISTKNGKRCPNAAPKPEKKDGVSFCAEH

Variants of: B1
Assay: abundance fitness (aPCA) (normalised: wild type 0, dead -1); higher = more abundant; growth selection in yeast, the domain comes from the species named
Settings: Homo sapiens
G42Q gave an abundance fitness of -0.008 ± 0.15.
With G42S the abundance fitness was -0.063 ± 0.046.
With G42D the abundance fitness was -0.092 ± 0.075.
In the case of G42R, the abundance fitness is reported as -0.038 ± 0.048.
G42I showed an abundance fitness of -0.206 ± 0.097.
G42T showed an abundance fitness of -0.055 ± 0.073.
In the case of G42L, the abundance fitness is reported as -0.125 ± 0.052.
Work on G42V yielded an abundance fitness of -0.108 ± 0.054.
G42K gave an abundance fitness of 0.051 ± 0.078.
K51A gave an abundance fitness of -0.03 ± 0.071.
With K51G the abundance fitness was -0.033 ± 0.088.
Variant K51T has an abundance fitness of -0.112 ± 0.073.
In the case of A2K, the abundance fitness is reported as -0.153 ± 0.14.
For A2F, the abundance fitness was -0.513 ± 0.14.
A2Q gave an abundance fitness of -0.186 ± 0.16.
A2D showed an abundance fitness of -0.388 ± 0.13.
For A2N, the abundance fitness was 0.023 ± 0.17.
With A2R the abundance fitness was -0.138 ± 0.076.
Variant A2M has an abundance fitness of -0.014 ± 0.082.
Variant A2L has an abundance fitness of -0.152 ± 0.069.
For S9Q, the abundance fitness was -0.115 ± 0.062.
With S9R the abundance fitness was -0.186 ± 0.047.
For S9F, the abundance fitness was 0.008 ± 0.08.
S9M gave an abundance fitness of -0.135 ± 0.06.
Variant S9D has an abundance fitness of -0.121 ± 0.073.
With S9E the abundance fitness was -0.191 ± 0.083.
For E25T, the abundance fitness was -0.127 ± 0.063.
Work on E25G yielded an abundance fitness of -0.063 ± 0.064.
Work on E25D yielded an abundance fitness of -0.188 ± 0.16.
In the case of E25V, the abundance fitness is reported as -0.069 ± 0.053.
Variant E25K has an abundance fitness of -0.23 ± 0.071.
E25Y showed an abundance fitness of -0.05 ± 0.09.
With F31V the abundance fitness was -0.248 ± 0.048.
F31S gave an abundance fitness of -0.179 ± 0.058.
For F31K, the abundance fitness was -0.195 ± 0.068.
Variant F31P has an abundance fitness of -0.183 ± 0.072.
In the case of F31G, the abundance fitness is reported as -0.1 ± 0.062.
In the case of F31H, the abundance fitness is reported as -0.261 ± 0.12.
For F31T, the abundance fitness was -0.21 ± 0.063.
For P30W, the abundance fitness was -0.514 ± 0.087.
P30Y gave an abundance fitness of -0.335 ± 0.076.
In the case of P30C, the abundance fitness is reported as -0.275 ± 0.065.
With P30D the abundance fitness was -0.155 ± 0.075.
Work on P30R yielded an abundance fitness of -0.198 ± 0.046.
Work on P30L yielded an abundance fitness of -0.188 ± 0.046.
Variant P30T has an abundance fitness of -0.184 ± 0.066.
Variant P30A has an abundance fitness of -0.205 ± 0.06.
With P30Q the abundance fitness was -0.279 ± 0.1.
For P11H, the abundance fitness was -0.234 ± 0.092.
For P11L, the abundance fitness was -0.18 ± 0.055.
In the case of P11G, the abundance fitness is reported as -0.133 ± 0.062.
In the case of P11K, the abundance fitness is reported as -0.067 ± 0.085.
Work on P11V yielded an abundance fitness of -0.197 ± 0.053.
In the case of Y36R, the abundance fitness is reported as -0.055 ± 0.058.
Work on Y36M yielded an abundance fitness of -0.216 ± 0.069.
Work on Y36D yielded an abundance fitness of -0.162 ± 0.084.
Y36E gave an abundance fitness of -0.183 ± 0.093.
Work on Y36P yielded an abundance fitness of -0.298 ± 0.087.
Y36C gave an abundance fitness of -0.173 ± 0.093.
C1D gave an abundance fitness of -0.896 ± 0.17.
C1K showed an abundance fitness of -0.155 ± 0.15.
For C1L, the abundance fitness was -0.886 ± 0.14.
With C1A the abundance fitness was -0.343 ± 0.27.
Work on C45V yielded an abundance fitness of -0.465 ± 0.063.
For C45A, the abundance fitness was -0.459 ± 0.093.
Work on C45G yielded an abundance fitness of -0.427 ± 0.057.
Work on C45I yielded an abundance fitness of -0.594 ± 0.086.
For P52H, the abundance fitness was -0.133 ± 0.07.
P52R showed an abundance fitness of -0.144 ± 0.049.
P52I showed an abundance fitness of -0.136 ± 0.14.
With P52K the abundance fitness was -0.136 ± 0.069.
P52L gave an abundance fitness of -0.106 ± 0.046.
Work on P52A yielded an abundance fitness of -0.072 ± 0.046.
In the case of P52D, the abundance fitness is reported as -0.077 ± 0.084.
Variant P52F has an abundance fitness of -0.01 ± 0.12.
Variant T4R has an abundance fitness of -0.399 ± 0.085.
Variant T4I has an abundance fitness of -0.114 ± 0.1.
With T4S the abundance fitness was -0.193 ± 0.081.
For T4E, the abundance fitness was -0.305 ± 0.076.
In the case of N28P, the abundance fitness is reported as -0.215 ± 0.051.
Work on N28Q yielded an abundance fitness of -0.069 ± 0.076.
In the case of N28A, the abundance fitness is reported as -0.118 ± 0.1.
Variant N28T has an abundance fitness of -0.031 ± 0.068.
In the case of N28E, the abundance fitness is reported as -0.07 ± 0.084.
In the case of N28S, the abundance fitness is reported as -0.006 ± 0.057.
N28R showed an abundance fitness of -0.049 ± 0.041.
With N28G the abundance fitness was -0.11 ± 0.064.
N28L showed an abundance fitness of -0.093 ± 0.051.
Variant N28D has an abundance fitness of -0.252 ± 0.17.
In the case of E63M, the abundance fitness is reported as -0.165 ± 0.075.
In the case of E63N, the abundance fitness is reported as -0.062 ± 0.094.
E63Y showed an abundance fitness of -0.138 ± 0.08.
For S59Q, the abundance fitness was -0.045 ± 0.098.
In the case of S59M, the abundance fitness is reported as -0.084 ± 0.11.
Variant S59A has an abundance fitness of -0.056 ± 0.11.
For S59N, the abundance fitness was -0.189 ± 0.084.
In the case of S59L, the abundance fitness is reported as -0.037 ± 0.078.
S59T showed an abundance fitness of -0.036 ± 0.058.
Work on N47W yielded an abundance fitness of -0.079 ± 0.061.
With N47A the abundance fitness was -0.002 ± 0.059.
N47E showed an abundance fitness of -0.049 ± 0.06.
In the case of N47L, the abundance fitness is reported as -0.053 ± 0.047.
For N47D, the abundance fitness was 0.017 ± 0.066.
For N47M, the abundance fitness was -0.074 ± 0.06.
N47H showed an abundance fitness of -0.118 ± 0.079.
Work on K27M yielded an abundance fitness of -0.269 ± 0.074.
With K27A the abundance fitness was -0.019 ± 0.089.
K27Y showed an abundance fitness of -0.202 ± 0.067.
Variant K27R has an abundance fitness of -0.12 ± 0.057.
In the case of K27W, the abundance fitness is reported as -0.215 ± 0.085.
For K27H, the abundance fitness was -0.094 ± 0.11.
Variant K27C has an abundance fitness of -0.194 ± 0.082.
In the case of K27P, the abundance fitness is reported as -0.091 ± 0.058.
Variant L13R has an abundance fitness of -0.465 ± 0.056.
Work on L13H yielded an abundance fitness of -0.215 ± 0.088.
In the case of L13Y, the abundance fitness is reported as -0.277 ± 0.1.
For L13K, the abundance fitness was -0.24 ± 0.18.
L13A gave an abundance fitness of -0.187 ± 0.057.
In the case of T39W, the abundance fitness is reported as -0.57 ± 0.15.
T39F gave an abundance fitness of -0.105 ± 0.075.
With T39A the abundance fitness was -0.13 ± 0.07.
With T39I the abundance fitness was -0.123 ± 0.066.
R6K gave an abundance fitness of -0.032 ± 0.11.
In the case of R6P, the abundance fitness is reported as -0.047 ± 0.069.
R6A showed an abundance fitness of -0.167 ± 0.073.
R6S showed an abundance fitness of -0.055 ± 0.057.
In the case of F18I, the abundance fitness is reported as -0.678 ± 0.065.
In the case of F18A, the abundance fitness is reported as -0.572 ± 0.064.
Work on F18R yielded an abundance fitness of -0.325 ± 0.041.
With V58S the abundance fitness was -0.088 ± 0.072.
V58Q gave an abundance fitness of 0.019 ± 0.12.
With V58P the abundance fitness was -0.098 ± 0.094.
V58G showed an abundance fitness of -0.138 ± 0.1.
V58F gave an abundance fitness of -0.063 ± 0.08.
In the case of V58A, the abundance fitness is reported as -0.018 ± 0.094.
In the case of V58C, the abundance fitness is reported as 0.012 ± 0.064.
Work on D26R yielded an abundance fitness of -0.175 ± 0.046.
Variant D26G has an abundance fitness of -0.197 ± 0.064.
Variant D26E has an abundance fitness of -0.157 ± 0.098.
In the case of D26N, the abundance fitness is reported as -0.081 ± 0.079.
Work on D26Q yielded an abundance fitness of -0.18 ± 0.071.
In the case of P46I, the abundance fitness is reported as -0.073 ± 0.061.
With P46K the abundance fitness was 0.025 ± 0.1.
With P46F the abundance fitness was -0.148 ± 0.072.
With P46A the abundance fitness was -0.119 ± 0.072.
P46W showed an abundance fitness of -0.024 ± 0.062.
P46N showed an abundance fitness of -0.014 ± 0.062.
In the case of P46T, the abundance fitness is reported as -0.049 ± 0.056.
Work on P46H yielded an abundance fitness of -0.165 ± 0.083.
K32Y gave an abundance fitness of -0.194 ± 0.083.
Variant K32D has an abundance fitness of -0.136 ± 0.11.
Variant K32C has an abundance fitness of -0.146 ± 0.098.
In the case of K32E, the abundance fitness is reported as -0.026 ± 0.083.
K32I gave an abundance fitness of -0.135 ± 0.085.
C61E showed an abundance fitness of -0.399 ± 0.065.
Work on C61T yielded an abundance fitness of -0.356 ± 0.049.
Work on C61Y yielded an abundance fitness of -0.585 ± 0.081.
C61H showed an abundance fitness of -0.447 ± 0.082.
C61A gave an abundance fitness of -0.483 ± 0.054.
For H22C, the abundance fitness was -0.383 ± 0.13.
For H22R, the abundance fitness was -0.812 ± 0.053.
In the case of H22L, the abundance fitness is reported as -1.34 ± 0.07.
Variant I37T has an abundance fitness of 0.038 ± 0.069.
With I37Q the abundance fitness was -0.031 ± 0.12.
Work on I37M yielded an abundance fitness of 0.046 ± 0.092.
With I37L the abundance fitness was -0.044 ± 0.047.
I37A showed an abundance fitness of -0.177 ± 0.062.
